Experimental data reported in US20130260436A1, “Methods of Identifying and Characterizing Natural Product Gene Clusters” (Victoria LInk Limited, priority 2010, published 2013).

Assays:
[1] = system: BpsA, single module non-ribosomal peptide synthetase of Streptomyces lavendulae ATCC 11924, purified recombinant 6His-tagged protein (apo form)
[2] = system: wild type BpsA reporter expressed in E. coli BL21(DE3) from a pCDFDuet-based plasmid (slBPSA)
[3] = system: E. coli harbouring an activating PPTase; assay: In vivo pigment synthesis activity of BpsA derivatives relative to wild type BpsA; assay type: cell-based; details: E. coli, supernatant A590
Excerpt: A detailed description of the method used for generation of mBpsA derivatives is given in Section 4.15. Briefly, a plasmid containing bpsA lacking its native T-domain (pBPSA3) was created. This plasmid contained restriction enzyme sites which were subsequently used to introduce foreign T-domain sequence. Foreign T-domains were then amplified from the chromosomal DNA of their host organisms and introduced into pBPSA3 to generate mBpsA derivatives which contained T-domains from foreign NRPS proteins in place of the native T-domain. Only the final embodiment of the T-domain swapping platform is described in this application. This embodiment is the result of rational in-silico design as well as trial and error, which are not described. Using this final platform, five different mBpsA derivatives were generated and subsequently assessed for in vivo pigment synthesis capacity in E. coli harbouring an activating PPTase. Table 3.1 gives a summary of the mBpsA derivatives generated as well as their in vivo pigment synthesis activities relative to wild type BpsA. The derivation of in vivo pigment synthesis activity was as described in 4.10.
For second tier screening, up to 45 improved clones, along with a positive and negative control, were stored as duplicate glycerol stocks in a 96wp. From this plate duplicate overnight cultures were established in LB supplemented with 0.4% glucose and appropriate antibiotics. […] Overnight cultures were grown for 16-20 h (37° C. 200 rpm) before transfer of 20 μl of each culture into a fresh well containing 130 μL LB supplemented with 115 mM L-Gln, 0.6 mM IPTG and appropriate antibiotics. Assay plates set up in this fashion contained duplicate cultures for each clone from two separate overnights. Assay plates were then wrapped in foil and incubated for 6-24 h (18° C., 200 rpm), depending on activity of improved clones. After incubation cells were collected at the corner of each well by centrifugation and OD 590 values determined using a microplate reader. Assays were repeated at least twice before determination of clones for sequence analysis.
In vivo pigment synthesis efficiencies for recombinant BpsA proteins described in Section 3.2 were derived from three separate assays. This was necessary due to the fact that pigment synthesis of wild type BpsA saturate before activity of mBpsA derivatives was detectable. Replicate cultures for determination of in vivo pigment synthesis activity were established from overnight starter cultures in a 96 wp as described in Section 4.9.3 The values presented are derived as follows: quadruplicate values for WT BpsA and oBpsA (mutant with reduced activity) were determined after 3 h, at which point pigment production was not saturated for WT. A separate quadruplicate assay was then run to obtain a value for slEntF by comparison to oBpsA after 12 h. Quadruplicate values for slPsT and slPvdD2 were then obtained in a separate assay by comparison to slEntF after 12 h.

Molecule: PP1183, putative phosphopantetheinyl transferase of Pseudomonas putida KT2440
- Km (BpsA as variable substrate), BpsA coupled indigoidine assay [1]: 8.6 µM
- kcat (BpsA as variable substrate), BpsA coupled indigoidine assay [1]: 0.185 s⁻¹
- kcat/Km (BpsA as variable substrate), BpsA coupled indigoidine assay [1]: 21500 M⁻¹ s⁻¹
- production of indigoidine on co-expression in E. coli BL21(DE3) [2]: co-expression of BpsA with any of the three PPTases selected (Sfp, PcpS and PP1183) resulted in substantial production of indigoidine

Molecule: Sfp, phosphopantetheinyl transferase of Bacillus subtilis subsp. spizizenii ATCC6633
- Km (BpsA as variable substrate), BpsA coupled indigoidine assay [1]: 3.3 µM
- kcat (BpsA as variable substrate), BpsA coupled indigoidine assay [1]: 0.0357 s⁻¹
- kcat/Km (BpsA as variable substrate), BpsA coupled indigoidine assay [1]: 10800 M⁻¹ s⁻¹
- production of indigoidine on co-expression in E. coli BL21(DE3) [2]: co-expression of BpsA with any of the three PPTases selected (Sfp, PcpS and PP1183) resulted in substantial production of indigoidine

B1: slPsT1: mBpsA with T-domain from pspph1926 gene of P. syringae 1448a; SEQ ID NO: 9 (protein)
chain: MTLQETSVLEPTLQGTTTLPGLLAQRVAEHPEAIAVAYRDDKLTFRELASRSAALADYLEHLGVSADDCVGLFVEPSIDLMVGAWGILNAGAAYLPLSPEYPEDRLRYMIENSETKIILAQQRLVSRLRELAPKDVTIVTLRESEAFVRPEGTEAPAARSARPDTLAYVIYTSGSTGKPKGVMIEHRSIVNQLGWLRETYAIDRSKVILQKTPMSFDAAQWEILSPANGATVVMGAPGVYADPEGLIETIVKHNVTTLQCVPTLLQGLIDTEKFPECVSLQQIFSGGEALSRLLAIQTTQEMPGRALINVYGPTETTINSSSFPVDPADLDEGPQSISIGSPVHGTTYHILDKETLKPVGVGEIGELYIGGIQLARGYLHRDDLTAERFLEIELEEGAEPVRLYKTGDLGQWNNDGTVQFAGRADNQVKLRGYRVELDEISLAIENHDWVRNAAVIVKNDGRTGFQNLIACIELSEKEAALMDQGNHGSHHASKKSKLQVKAQLSNPGLRDDAELAARPAFDLEGAEPTPEQRARVFARKTYRFYEGGAVTQADLLGLLGATVTAGYSRKAADLAPAELGQILRWFGQYISEERLLPKYGYASPGALYATQMYFELEGVGGLKPGYYYYQPVRHQLVLISEREATGKATAQIHFIGKKSGIEPVYKNNILEVLEIETGHMVGLFEQILPAYGLDIHDRAYEPAVKDLLDVADEDYYLGTFELVPHAGARDDQAEVYVQTHGGKVAGLPEGQYRYENGELTRFSDDIVLKKHVIAINQSVYQAASFGISVYSRAEEEWLKYITLGKKLQHLMMNGLNLGFMSSGYSSKTGNPLPASRRMDAVLGANGVDSAPMYFFVGGRISDEQIGHEGMREDSVHMRGPAELIRDDLVSFLPDYMIPNRVVVFDRLPLSANGKIDVKALAASDQVNAELVERPHVAPRTEFEQRLAALWEQVLQVERVGLNDNFFALGGHSLLAVSLAGRIRETFDVSIKLHDFLLMQTLGELADFMRREVAQESSRFVRLHAETGKARPVICWPGLGGYPMNLRSLAGEIGLGRSFYGVQSYGINEGETPYETITEMAKKDIEALKEIQPAGPYTLWGYSFGARVAFETAYQLEQAGEKVDNLFLIAPGSPKVRAENGKVWGREASFANRGYTTILFSVFTGTISGPDLDRCLETVTDEASFAEFISELKGIDVDLARRIISVVGQTYEFEYSFHELAERTLQAPISIFKAVGDDYSFLENSSGYSAEPPTVIDLDADHYSLLREDIGELVKHIRYLLGE
- Relative activity (in vivo pigment synthesis relative to wild type BpsA) [3]: ~5%

B2: slPvdD2: mBpsA with T-domain from second module of pvdD of P. aeruginosa PAO1; SEQ ID NO: 7 (protein)
chain: MTLQETSVLEPTLQGTTTLPGLLAQRVAEHPEAIAVAYRDDKLTFRELASRSAALADYLEHLGVSADDCVGLFVEPSIDLMVGAWGILNAGAAYLPLSPEYPEDRLRYMIENSETKIILAQQRLVSRLRELAPKDVTIVTLRESEAFVRPEGTEAPAARSARPDTLAYVIYTSGSTGKPKGVMIEHRSIVNQLGWLRETYAIDRSKVILQKTPMSFDAAQWEILSPANGATVVMGAPGVYADPEGLIETIVKHNVTTLQCVPTLLQGLIDTEKFPECVSLQQIFSGGEALSRLLAIQTTQEMPGRALINVYGPTETTINSSSFPVDPADLDEGPQSISIGSPVHGTTYHILDKETLKPVGVGEIGELYIGGIQLARGYLHRDDLTAERFLEIELEEGAEPVRLYKTGDLGQWNNDGTVQFAGRADNQVKLRGYRVELDEISLAIENHDWVRNAAVIVKNDGRTGFQNLIACIELSEKEAALMDQGNHGSHHASKKSKLQVKAQLSNPGLRDDAELAARPAFDLEGAEPTPEQRARVFARKTYRFYEGGAVTQADLLGLLGATVTAGYSRKAADLAPAELGQILRWFGQYISEERLLPKYGYASPGALYATQMYFELEGVGGLKPGYYYYQPVRHQLVLISEREATGKATAQIHFIGKKSGIEPVYKNNILEVLEIETGHMVGLFEQILPAYGLDIHDRAYEPAVKDLLDVADEDYYLGTFELVPHAGARDDQAEVYVQTHGGKVAGLPEGQYRYENGELTRFSDDIVLKKHVIAINQSVYQAASFGISVYSRAEEEWLKYITLGKKLQHLMMNGLNLGFMSSGYSSKTGNPLPASRRMDAVLGANGVDSAPMYFFVGGRISDEQIGHEGMREDSVHMRGPAELIRDDLVSFLPDYMIPNRVVVFDRLPLSANGKIDVKALAASDQVNAELVERPYRAPGSELEQRIAAIWAEILGVERVGLDDNFFELGGHSLLLLMLKERIGDTCQATLSISQLMTHASVAEQAACIEREVAQESSRFVRLHAETGKARPVICWPGLGGYPMNLRSLAGEIGLGRSFYGVQSYGINEGETPYETITEMAKKDIEALKEIQPAGPYTLWGYSFGARVAFETAYQLEQAGEKVDNLFLIAPGSPKVRAENGKVWGREASFANRGYTTILFSVFTGTISGPDLDRCLETVTDEASFAEFISELKGIDVDLARRIISVVGQTYEFEYSFHELAERTLQAPISIFKAVGDDYSFLENSSGYSAEPPTVIDLDADHYSLLREDIGELVKHIRYLLGE
- Relative activity (in vivo pigment synthesis relative to wild type BpsA) [3]: ~5%
